The data set has as its target GFP-WRI1(58-240), WRINKLED1 DNA-binding domain (UniProt Q6X5Y6 58-240). Kind of data set: MST.

A word on the Kd: it is the free concentration of one partner at which half of the binding sites on the other are occupied at equilibrium, for simple one-to-one binding. A high value points to a looser complex.

Chain of GFP-WRI1(58-240), WRINKLED1 DNA-binding domain (Q6X5Y6 58-240): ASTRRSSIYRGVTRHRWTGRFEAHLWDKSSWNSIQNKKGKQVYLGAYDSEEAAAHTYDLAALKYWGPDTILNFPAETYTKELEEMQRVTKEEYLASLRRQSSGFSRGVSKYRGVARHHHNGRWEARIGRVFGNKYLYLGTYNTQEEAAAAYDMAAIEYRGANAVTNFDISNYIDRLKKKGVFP

B1: BADC3m3 (dsDNA)
DNA 1: GTTGTGTCCTCGTTTACATCGTTATCGT
DNA 2: ACGATAACGATGTAAACGAGGACACAAC
On to B1, for which the Kd came to 22.9 ± 2.94 nM.

B2: BADC1m3 (dsDNA)
DNA 1: CCTTCTTCTTTGGTGCCTCCGTCCGCCG
DNA 2: CGGCGGACGGAGGCACCAAAGAAGAAGG
B2 yielded a Kd of 70.7 ± 27.8 nM.

B3: BADC3 AW box (-94/-67) (dsDNA)
DNA 1: GTTGTGTCCTCGTTCATATCGTTATCGT
DNA 2: ACGATAACGATATGAACGAGGACACAAC
On to B3, for which the Kd turned out to be 5.24 ± 2.59 nM.

B4: BADC2 AW box (-102/-75) (dsDNA)
DNA 1: TCGTCTTCCTCGTTCGTATCGTTCACTC
DNA 2: GAGTGAACGATACGAACGAGGAAGACGA
The molecule B4 displayed a Kd of 2.73 ± 0.72 nM.

B5: BADC2m3 (dsDNA)
DNA 1: TCGTCTTCCTCGTTCACATCGTTCACTC
DNA 2: GAGTGAACGATGTGAACGAGGAAGACGA
B5 registered a Kd of 149 ± 139 nM.

B6: BCCP1 AW box (-67/-40) (dsDNA)
DNA 1: TTGTGCTCTTTGGTTTCATCGAGAGAGA
DNA 2: TCTCTCTCGATGAAACCAAAGAGCACAA
Turning to B6, binding was put at a Kd of 23.9 ± 4.42 nM.

B7: Neg.C (dsDNA)
DNA 1: TGTTACAATCTAGTTACTATTCAGGGTA
DNA 2: TACCCTGAATAGTAACTAGATTGTAACA
As to B7, the binding result is given as “no binding”.

B8: BCCP2 AW box2 (-143/-115) (dsDNA)
DNA 1: CCTACTTCCTCGGTTTCATCGTCCACTG
DNA 2: CAGTGGACGATGAAACCGAGGAAGTAGG
Consider B8, for which the Kd is 6.68 ± 0.94 nM.

B9: BADC1 AW box (-169/-142) (dsDNA)
DNA 1: CCTTCTTCTTTGGTAACTCCGTCCGCCG
DNA 2: CGGCGGACGGAGTTACCAAAGAAGAAGG
In turn, B9 came in with a Kd of 0.27 ± 0.27 nM.

B10: BCCP2 AW box1 (-36/-8) (dsDNA)
DNA 1: TGGGTTTCTTCGTAAGCATCGAAATCAG
DNA 2: CTGATTTCGATGCTTACGAAGAAACCCA
In turn, B10 gave a Kd of 0.65 ± 0.39 nM.
